Columns and labels:
[1] = molecular target: T1, heterodimeric multidrug resistance ABC transporter OmrDE (Omithinimicrobium cerasi strain USBA17B2, UniProt A0A285VW85 1-577; A0A285VWG3 1-661); assay: cell-based or functional assay
T1 sequence (looked up) 1: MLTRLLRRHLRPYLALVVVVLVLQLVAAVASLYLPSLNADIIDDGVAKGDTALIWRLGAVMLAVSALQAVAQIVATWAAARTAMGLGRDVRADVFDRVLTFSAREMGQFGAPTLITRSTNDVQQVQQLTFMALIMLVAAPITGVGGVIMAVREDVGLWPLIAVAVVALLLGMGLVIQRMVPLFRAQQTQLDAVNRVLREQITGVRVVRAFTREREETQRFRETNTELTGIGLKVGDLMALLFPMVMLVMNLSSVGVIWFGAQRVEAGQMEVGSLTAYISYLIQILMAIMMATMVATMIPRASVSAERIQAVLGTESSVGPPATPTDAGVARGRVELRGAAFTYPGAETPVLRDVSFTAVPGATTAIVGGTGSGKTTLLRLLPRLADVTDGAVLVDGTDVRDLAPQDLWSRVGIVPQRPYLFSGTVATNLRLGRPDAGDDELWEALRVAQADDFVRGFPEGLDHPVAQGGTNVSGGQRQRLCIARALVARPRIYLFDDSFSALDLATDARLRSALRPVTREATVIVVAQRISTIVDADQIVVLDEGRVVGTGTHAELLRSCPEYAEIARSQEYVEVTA
T1 sequence (looked up) 2: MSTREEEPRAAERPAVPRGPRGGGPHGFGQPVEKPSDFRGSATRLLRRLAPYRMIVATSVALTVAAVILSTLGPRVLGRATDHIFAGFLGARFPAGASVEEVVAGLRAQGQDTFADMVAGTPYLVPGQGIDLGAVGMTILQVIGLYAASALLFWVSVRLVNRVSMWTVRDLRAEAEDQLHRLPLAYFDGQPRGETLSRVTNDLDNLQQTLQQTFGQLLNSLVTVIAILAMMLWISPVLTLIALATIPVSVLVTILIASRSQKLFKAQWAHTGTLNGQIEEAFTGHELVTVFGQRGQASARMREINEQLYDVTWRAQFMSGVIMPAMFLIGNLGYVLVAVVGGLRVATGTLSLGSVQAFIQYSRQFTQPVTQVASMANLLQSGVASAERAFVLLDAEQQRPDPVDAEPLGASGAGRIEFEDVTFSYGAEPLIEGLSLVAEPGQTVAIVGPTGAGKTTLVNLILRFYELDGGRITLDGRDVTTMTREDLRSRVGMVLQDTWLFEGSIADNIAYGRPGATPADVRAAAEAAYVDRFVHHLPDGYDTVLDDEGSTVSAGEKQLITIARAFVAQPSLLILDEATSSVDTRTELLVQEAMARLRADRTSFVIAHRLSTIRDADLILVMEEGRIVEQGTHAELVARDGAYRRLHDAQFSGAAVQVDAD

[2] = molecular target: T1, heterodimeric multidrug resistance ABC …; assay: cell-based or functional assay; remark: listed apart in the source
[3] = molecular target: T2, NBD-truncated OmrDE (OmrD^tcE^tc) (Omithinimicrobium cerasi strain USBA17B2); assay: ITC; replicate #1
T2 chain 1: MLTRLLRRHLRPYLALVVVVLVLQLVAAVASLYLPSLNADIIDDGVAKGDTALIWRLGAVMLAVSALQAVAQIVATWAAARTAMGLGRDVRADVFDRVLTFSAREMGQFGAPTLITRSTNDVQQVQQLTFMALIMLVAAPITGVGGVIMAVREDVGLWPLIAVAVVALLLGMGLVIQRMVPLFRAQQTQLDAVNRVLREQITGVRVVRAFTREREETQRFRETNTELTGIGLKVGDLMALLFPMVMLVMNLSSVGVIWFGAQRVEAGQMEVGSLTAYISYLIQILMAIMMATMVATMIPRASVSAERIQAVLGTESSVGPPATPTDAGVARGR
T2 chain 2: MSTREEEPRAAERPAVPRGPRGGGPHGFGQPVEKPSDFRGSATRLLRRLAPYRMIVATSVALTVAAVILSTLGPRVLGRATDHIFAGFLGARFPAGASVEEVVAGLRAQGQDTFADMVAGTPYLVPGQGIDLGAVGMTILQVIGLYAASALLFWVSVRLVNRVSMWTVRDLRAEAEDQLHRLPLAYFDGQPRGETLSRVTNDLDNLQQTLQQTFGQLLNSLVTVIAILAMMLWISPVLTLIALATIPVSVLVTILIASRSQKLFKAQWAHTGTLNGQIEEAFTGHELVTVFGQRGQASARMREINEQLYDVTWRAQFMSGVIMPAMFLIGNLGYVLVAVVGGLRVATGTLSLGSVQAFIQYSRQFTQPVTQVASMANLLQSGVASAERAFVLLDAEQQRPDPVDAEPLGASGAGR

[4] = molecular target: T3, heterodimeric multidrug resistance ABC transporter OmrDE (Omithinimicrobium cerasi strain USBA17B2, UniProt A0A285VW85 1-577; A0A285VWG3 1-661); assay: ITC; replicate #4
T3 chain 1: T1 sequence (looked up) 1
T3 chain 2: T1 sequence (looked up) 2

[5] = molecular target: T4, NBD-truncated OmrDE (OmrD^tcE^tc) (Omithinimicrobium cerasi strain USBA17B2); assay: ITC; OcHeR injected into the Omr protein; 25 °C, 500 rpm; buffer SD; MicroCal ITC200; one site binding model (sequential binding site model for R233Q); perfect saturation was not achieved; settings: both partners purified
T4 chain 1: T2 chain 1
T4 chain 2: T2 chain 2

[6] = molecular target: T1, heterodimeric multidrug resistance ABC …; assay: as above; settings: both partners purified
OmrE (OmrE-His) = molecular target: T5, OmrE (OmrE-His) (Omithinimicrobium cerasi strain USBA17B2, UniProt A0A285VWG3 1-661); assay: as above; settings: both partners purified
T5 construct: OmrE-His calculated as 72.09 kDa; source: E. coli C43 (DE3), purified (DDM-solubilized membrane fraction, Ni2+-NTA agarose)
T5 sequence (looked up): T1 sequence (looked up) 2

B1: Omithinimicrobium cerasi strain USBA17B2 heliorhodopsin (OcHeR) WT (natural protein, UniProt A0A285W045 1-266, looked up)
chain: MGSTGTGSTASTTRADESRYAGLRRYNVVAAVVHAAQAVAVVVLATDFTLPMTASYLAGPPGSPPGEAVTLWDVPIPLAIATFLALSALFHVIVASPPFFDRYRRGLAQGHNYFRWVEYSLSSSLMIVIIAQLVGISDVVALLGLFGVNASMILFGWLQEKYHQPGDGGWLPFVFGCLAGAVPWVGIVLYTIAPGSTSGAEPPGFVYGIIVSLFLFFNVFALVQWLQYRPVGRFRDYLLGERLYITLSLVAKSALAWQIFGGTLAT
modifications: retinal Schiff base linked to K252
notes: gene codon-optimized for E. coli and chemically synthesized; source: E. coli C43 (DE3), purified (DDM-solubilized membrane fraction, Ni2+-NTA agarose)
How did the “DAPI translocation capacity of OmrDE co-expressed with OcHeR WT in IMVs at 15 min, presence of light against absence of light” value [1] turn out when B1 was run?
The value was 3 fold.

And the “half-life (t1/2) of the G state (554 nm) of the OcHeR photocycle with OmrDE against OcHeR WT alone” value [1]?
Its value is 1.6 fold.

What about the “half-life (t1/2) of the O state (618 nm) of the OcHeR photocycle with OmrDE against OcHeR WT alone” value [1] of the same binder?
Its value is 2.2 fold.

And the “kcat/Km of ATP hydrolysis of purified OmrDE with OcHeR WT (1:1), absence of light” value [2]?
The value was 37.7 M^−1 S^−1.

What about the “kcat/Km of ATP hydrolysis of purified OmrDE with OcHeR WT (1:1), presence of light (532 nm)” value [2] of the same binder?
The value was 58.4 M^−1 S^−1.

And the Kd [3]?
The Kd was 42 µM.

And the Kd [4]?
The Kd was 62 µM.

What about the dH [5] of the same binder?
The dH was -35.5 kcal/mol.

And the Kd [6]?
The Kd was 91.6 µM.

And the dH [6]?
Its dH is 48.9 kcal/mol.

What about the Kd (OmrE (OmrE-His)) of the same binder?
Its Kd is 35.3 µM.

And the dH (OmrE (OmrE-His))?
Its dH is 35.5 kcal/mol.

Source: article PMC11109279, “Heliorhodopsin-mediated light-modulation of ABC transporter” (Nature Communications, 2024)
